From patent US20250134988A1 come the findings set out here.

This test deals with CoV2_5P_FPKO1 (SARS-CoV-2) (UniProt P0DTC2). The test is described as follows: ELISA.

In turn, CR3022 (antibody) yielded an EC50 (read off the curve) of 0.01 µg/mL.
